Measured values: PMC9482650, “Quantitative fragmentomics allow affinity mapping of interactomes” (Nature Communications, 2022)

B1: PRKN, O60260 (peptide)
chain: VCMGDHWFDV
B2: ATRNL1, Q5VV63 (peptide)
chain: HLSTRQGTCV

What follows are binders tested against T1, LNX2_3, Q8N448 (assay: holdup assay). Conditions: plain residues with an end cap or a label only (N-terminal biotin on a linker: ado-ado).
T1 sequence (Q8N448 463-564, limits assumed, looked up): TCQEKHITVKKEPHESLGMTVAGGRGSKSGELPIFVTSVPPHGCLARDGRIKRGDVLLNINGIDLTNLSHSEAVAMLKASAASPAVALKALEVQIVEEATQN
Parameters: key: below the threshold = too weak to quantify, mostly under pKd 3.1 to 4

Binder | pKd
B1 | below the threshold
B2 | below the threshold

These binders were tested against MAGI2_4, Q86UL8 (assay: holdup assay). Conditions: plain residues with an end cap or a label only (N-terminal biotin on a linker: ado-ado).
Parameters: key: below the threshold = too weak to quantify, mostly under pKd 3.1 to 4

MAGI2_4, Q86UL8, sequence (Q86UL8 772-865): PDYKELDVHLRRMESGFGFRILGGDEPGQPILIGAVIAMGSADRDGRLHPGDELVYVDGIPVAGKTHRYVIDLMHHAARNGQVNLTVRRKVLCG

Binder | pKd
B1 | 4.04
B2 | 4.97

The binders below were run against DLG4_1, P78352 (assay: holdup assay). Conditions: plain residues with an end cap or a label only (N-terminal biotin on a linker: ado-ado).
Parameters: key: below the threshold = too weak to quantify, mostly under pKd 3.1 to 4

DLG4_1, P78352, sequence (P78352 62-152): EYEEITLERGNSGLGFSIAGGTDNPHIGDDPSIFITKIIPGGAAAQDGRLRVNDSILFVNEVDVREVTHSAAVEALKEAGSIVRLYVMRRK

Binder | pKd
B1 | below the threshold
B2 | 4.33

What follows are binders tested against T2, TJP3_3, O95049 (assay: holdup assay). Conditions: plain residues with an end cap or a label only (N-terminal biotin on a linker: ado-ado).
T2 sequence (O95049 375-456, limits assumed, looked up): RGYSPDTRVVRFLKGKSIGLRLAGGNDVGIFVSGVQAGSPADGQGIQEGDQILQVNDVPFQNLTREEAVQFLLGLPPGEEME
Parameters: key: below the threshold = too weak to quantify, mostly under pKd 3.1 to 4

Binder | pKd
B1 | 4.57
B2 | below the threshold

What follows are binders tested against FRMPD2_2, Q68DX3 (assay: holdup assay). Conditions: plain residues with an end cap or a label only (N-terminal biotin on a linker: ado-ado).
Parameters: key: below the threshold = too weak to quantify, mostly under pKd 3.1 to 4

FRMPD2_2, Q68DX3, sequence (Q68DX3 944-1038): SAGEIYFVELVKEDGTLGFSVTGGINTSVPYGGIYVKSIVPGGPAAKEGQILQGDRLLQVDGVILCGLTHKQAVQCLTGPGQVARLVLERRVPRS

Binder | pKd
B1 | below the threshold
B2 | below the threshold

The binders below were run against T3, ARHGEF11, O15085 (assay: holdup assay). Conditions: plain residues with an end cap or a label only (N-terminal biotin on a linker: ado-ado).
T3 sequence (O15085 42-136, limits assumed, looked up): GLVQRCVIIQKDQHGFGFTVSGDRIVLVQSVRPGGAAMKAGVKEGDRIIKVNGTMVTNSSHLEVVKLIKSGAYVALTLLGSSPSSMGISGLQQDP
Parameters: key: below the threshold = too weak to quantify, mostly under pKd 3.1 to 4

Binder | pKd
B1 | 4.18
B2 | 4.02

The binders below were run against T4, SHANK1, Q9Y566 (assay: holdup assay). Conditions: plain residues with an end cap or a label only (N-terminal biotin on a linker: ado-ado).
T4 sequence (Q9Y566 658-767, limits assumed, looked up): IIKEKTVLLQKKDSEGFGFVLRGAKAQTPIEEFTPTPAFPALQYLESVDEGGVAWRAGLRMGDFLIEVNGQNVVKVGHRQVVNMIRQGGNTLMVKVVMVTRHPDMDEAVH
Parameters: key: below the threshold = too weak to quantify, mostly under pKd 3.1 to 4

Binder | pKd
B1 | below the threshold
B2 | below the threshold

What follows are binders tested against PARD3_3, Q8TEW0 (assay: holdup assay). Conditions: plain residues with an end cap or a label only (N-terminal biotin on a linker: ado-ado).
Parameters: key: below the threshold = too weak to quantify, mostly under pKd 3.1 to 4

PARD3_3, Q8TEW0, sequence (Q8TEW0 582-685): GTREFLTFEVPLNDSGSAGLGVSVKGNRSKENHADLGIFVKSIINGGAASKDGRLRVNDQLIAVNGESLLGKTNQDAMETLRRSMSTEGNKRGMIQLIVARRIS

Binder | pKd
B1 | 4.25
B2 | below the threshold

What follows are binders tested against SCRIB_2, Q14160 (assay: holdup assay). Conditions: plain residues with an end cap or a label only (N-terminal biotin on a linker: ado-ado).
Parameters: key: below the threshold = too weak to quantify, mostly under pKd 3.1 to 4

SCRIB_2, Q14160, sequence (Q14160 857-960): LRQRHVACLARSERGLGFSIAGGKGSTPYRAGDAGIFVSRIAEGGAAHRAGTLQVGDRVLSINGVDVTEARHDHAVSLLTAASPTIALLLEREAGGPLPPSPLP

Binder | pKd
B1 | below the threshold
B2 | 4.02

What follows are binders tested against NHERF4_2, Q86UT5 (assay: holdup assay). Conditions: plain residues with an end cap or a label only (N-terminal biotin on a linker: ado-ado).
Parameters: key: below the threshold = too weak to quantify, mostly under pKd 3.1 to 4

NHERF4_2, Q86UT5, sequence (Q86UT5 220-308): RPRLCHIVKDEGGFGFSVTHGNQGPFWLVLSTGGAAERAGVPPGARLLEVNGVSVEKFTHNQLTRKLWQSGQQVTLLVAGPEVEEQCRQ

Binder | pKd
B1 | below the threshold
B2 | below the threshold

The binders below were run against T5, APBA1_1, Q02410 (assay: holdup assay). Conditions: plain residues with an end cap or a label only (N-terminal biotin on a linker: ado-ado).
T5 sequence (Q02410 651-752, limits assumed, looked up): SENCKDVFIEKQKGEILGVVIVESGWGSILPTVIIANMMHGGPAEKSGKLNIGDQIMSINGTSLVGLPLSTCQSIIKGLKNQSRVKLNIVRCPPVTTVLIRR
Parameters: key: below the threshold = too weak to quantify, mostly under pKd 3.1 to 4

Binder | pKd
B1 | below the threshold
B2 | below the threshold

What follows are binders tested against GRID2IP_1, A4D2P6 (assay: holdup assay). Conditions: plain residues with an end cap or a label only (N-terminal biotin on a linker: ado-ado).
Parameters: key: below the threshold = too weak to quantify, mostly under pKd 3.1 to 4

GRID2IP_1, A4D2P6, sequence (A4D2P6 1-87): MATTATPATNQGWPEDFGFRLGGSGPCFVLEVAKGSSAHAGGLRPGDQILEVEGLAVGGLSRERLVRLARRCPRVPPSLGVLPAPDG

Binder | pKd
B1 | below the threshold
B2 | below the threshold

The binders below were run against Inadl_4, Q8NI35 (assay: holdup assay). Conditions: plain residues with an end cap or a label only (N-terminal biotin on a linker: ado-ado).
Parameters: key: below the threshold = too weak to quantify, mostly under pKd 3.1 to 4

Inadl_4, Q8NI35, sequence (Q8NI35 547-651): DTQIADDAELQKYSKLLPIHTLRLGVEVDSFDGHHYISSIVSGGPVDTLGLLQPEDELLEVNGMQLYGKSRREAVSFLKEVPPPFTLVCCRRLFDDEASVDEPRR

Binder | pKd
B1 | below the threshold
B2 | below the threshold

Each binder was assayed against PTPN3, P26045 (assay: holdup assay). Conditions: plain residues with an end cap or a label only (N-terminal biotin on a linker: ado-ado).
Parameters: key: below the threshold = too weak to quantify, mostly under pKd 3.1 to 4

PTPN3, P26045, sequence (P26045 505-587): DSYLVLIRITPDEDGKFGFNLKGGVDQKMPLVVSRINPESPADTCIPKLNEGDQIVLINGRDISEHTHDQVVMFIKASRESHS

Binder | pKd
B1 | 3.49
B2 | 4.54

The binders below were run against DLG2_3, Q15700 (assay: holdup assay). Conditions: plain residues with an end cap or a label only (N-terminal biotin on a linker: ado-ado).
Parameters: key: below the threshold = too weak to quantify, mostly under pKd 3.1 to 4

Binder | pKd
B1 | below the threshold
B2 | 4.19

The binders below were run against NHERF4_1, Q86UT5-2 (assay: holdup assay). Conditions: plain residues with an end cap or a label only (N-terminal biotin on a linker: ado-ado).
Parameters: key: below the threshold = too weak to quantify, mostly under pKd 3.1 to 4

NHERF4_1, Q86UT5-2, sequence (Q86UT5 other isoform, or with tags, fused parts or gaps): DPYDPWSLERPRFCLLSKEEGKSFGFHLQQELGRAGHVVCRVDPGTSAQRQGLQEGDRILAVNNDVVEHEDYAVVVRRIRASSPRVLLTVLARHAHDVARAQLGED

Binder | pKd
B1 | below the threshold
B2 | below the threshold

Each binder was assayed against Inadl_2, Q8NI35 (assay: holdup assay). Conditions: plain residues with an end cap or a label only (N-terminal biotin on a linker: ado-ado).
Parameters: key: below the threshold = too weak to quantify, mostly under pKd 3.1 to 4

Inadl_2, Q8NI35, sequence (Q8NI35 238-335): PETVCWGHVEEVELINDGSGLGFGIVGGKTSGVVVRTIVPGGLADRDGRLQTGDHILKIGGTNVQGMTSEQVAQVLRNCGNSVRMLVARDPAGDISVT

Binder | pKd
B1 | 3.51
B2 | below the threshold

Each binder was assayed against Inadl_8, Q8NI35 (assay: holdup assay). Conditions: plain residues with an end cap or a label only (N-terminal biotin on a linker: ado-ado).
Parameters: key: below the threshold = too weak to quantify, mostly under pKd 3.1 to 4

Inadl_8, Q8NI35, sequence (Q8NI35 1425-1530): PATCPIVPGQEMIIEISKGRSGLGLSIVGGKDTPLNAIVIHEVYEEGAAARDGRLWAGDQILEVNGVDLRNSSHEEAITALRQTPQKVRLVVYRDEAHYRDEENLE

Binder | pKd
B1 | 3.66
B2 | 4.25

The binders below were run against T6, RAPGEF6, Q8TEU7 (assay: holdup assay). Conditions: plain residues with an end cap or a label only (N-terminal biotin on a linker: ado-ado).
T6 sequence (Q8TEU7 525-625, limits assumed, looked up): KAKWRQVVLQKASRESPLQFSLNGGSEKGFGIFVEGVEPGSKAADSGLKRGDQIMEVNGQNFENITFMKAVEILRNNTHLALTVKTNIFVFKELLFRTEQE
Parameters: key: below the threshold = too weak to quantify, mostly under pKd 3.1 to 4

Binder | pKd
B1 | below the threshold
B2 | below the threshold

The binders below were run against MAGI2_3, Q86UL8 (assay: holdup assay). Conditions: plain residues with an end cap or a label only (N-terminal biotin on a linker: ado-ado).
Parameters: key: below the threshold = too weak to quantify, mostly under pKd 3.1 to 4

MAGI2_3, Q86UL8, sequence (Q86UL8 600-682): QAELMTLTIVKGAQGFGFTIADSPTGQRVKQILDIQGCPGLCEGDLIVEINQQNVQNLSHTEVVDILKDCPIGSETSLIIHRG

Binder | pKd
B1 | below the threshold
B2 | below the threshold

The binders below were run against FRMPD2_1, Q68DX3 (assay: holdup assay). Conditions: plain residues with an end cap or a label only (N-terminal biotin on a linker: ado-ado).
Parameters: key: below the threshold = too weak to quantify, mostly under pKd 3.1 to 4

FRMPD2_1, Q68DX3, sequence (Q68DX3 770-861): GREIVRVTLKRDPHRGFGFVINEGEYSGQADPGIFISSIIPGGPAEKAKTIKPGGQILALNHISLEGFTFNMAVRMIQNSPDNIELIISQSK

Binder | pKd
B1 | below the threshold
B2 | 4.1

The binders below were run against T7, LIN7C, Q9NUP9 (assay: holdup assay). Conditions: plain residues with an end cap or a label only (N-terminal biotin on a linker: ado-ado).
T7 sequence (Q9NUP9 88-185, limits assumed, looked up): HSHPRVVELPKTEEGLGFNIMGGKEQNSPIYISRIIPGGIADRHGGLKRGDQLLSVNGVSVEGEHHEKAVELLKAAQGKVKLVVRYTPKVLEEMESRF
Parameters: key: below the threshold = too weak to quantify, mostly under pKd 3.1 to 4

Binder | pKd
B1 | below the threshold
B2 | below the threshold

Each binder was assayed against LDB3, O75112 (assay: holdup assay). Conditions: plain residues with an end cap or a label only (N-terminal biotin on a linker: ado-ado).
Parameters: key: below the threshold = too weak to quantify, mostly under pKd 3.1 to 4

LDB3, O75112, sequence (O75112 1-94): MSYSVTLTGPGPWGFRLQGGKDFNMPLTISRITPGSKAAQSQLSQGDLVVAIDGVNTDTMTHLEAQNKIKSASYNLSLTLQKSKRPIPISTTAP

Binder | pKd
B1 | 3.9
B2 | below the threshold

What follows are binders tested against PDLIM1, O00151 (assay: holdup assay). Conditions: plain residues with an end cap or a label only (N-terminal biotin on a linker: ado-ado).
Parameters: key: below the threshold = too weak to quantify, mostly under pKd 3.1 to 4

PDLIM1, O00151, sequence (O00151 1-87): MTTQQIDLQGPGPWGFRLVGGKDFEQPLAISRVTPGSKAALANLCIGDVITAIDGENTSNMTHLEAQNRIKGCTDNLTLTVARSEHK

Binder | pKd
B1 | 3.83
B2 | below the threshold

Each binder was assayed against T8, LRRC7, Q96NW7 (assay: holdup assay). Conditions: plain residues with an end cap or a label only (N-terminal biotin on a linker: ado-ado).
T8 sequence (Q96NW7 1440-1537, limits assumed, looked up): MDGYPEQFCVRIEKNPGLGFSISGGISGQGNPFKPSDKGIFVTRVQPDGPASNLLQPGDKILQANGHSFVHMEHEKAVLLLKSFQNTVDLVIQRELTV
Parameters: key: below the threshold = too weak to quantify, mostly under pKd 3.1 to 4

Binder | pKd
B1 | 3.75
B2 | 3.63

What follows are binders tested against T9, APBA1_2, Q02410 (assay: holdup assay). Conditions: plain residues with an end cap or a label only (N-terminal biotin on a linker: ado-ado).
T9 sequence (Q02410 742-832, limits assumed, looked up): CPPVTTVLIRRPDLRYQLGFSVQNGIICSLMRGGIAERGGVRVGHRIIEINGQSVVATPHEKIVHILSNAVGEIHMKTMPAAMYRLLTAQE
Parameters: key: below the threshold = too weak to quantify, mostly under pKd 3.1 to 4

Binder | pKd
B1 | 3.92
B2 | 4.62

These binders were tested against MAGI3_2, Q5TCQ9 (assay: holdup assay). Conditions: plain residues with an end cap or a label only (N-terminal biotin on a linker: ado-ado).
Parameters: key: below the threshold = too weak to quantify, mostly under pKd 3.1 to 4

MAGI3_2, Q5TCQ9, sequence (Q5TCQ9 398-503): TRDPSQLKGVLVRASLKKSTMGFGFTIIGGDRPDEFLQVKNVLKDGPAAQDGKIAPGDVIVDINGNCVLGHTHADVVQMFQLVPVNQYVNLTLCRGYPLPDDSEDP

Binder | pKd
B1 | below the threshold
B2 | 5.16

The binders below were run against T10, ARHGAP21, Q5T5U3 (assay: holdup assay). Conditions: plain residues with an end cap or a label only (N-terminal biotin on a linker: ado-ado).
T10 sequence (Q5T5U3 45-169, limits assumed, looked up): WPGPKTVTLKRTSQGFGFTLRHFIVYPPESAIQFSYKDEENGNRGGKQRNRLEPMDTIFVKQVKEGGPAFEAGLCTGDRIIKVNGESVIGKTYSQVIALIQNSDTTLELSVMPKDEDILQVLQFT
Parameters: key: below the threshold = too weak to quantify, mostly under pKd 3.1 to 4

Binder | pKd
B1 | 4.08
B2 | below the threshold
